Target: hisPcrH (Pseudomonas aeruginosa T3S chaperone PcrH with an N-terminal polyHis tag) (P. aeruginosa PAO1) (UniProt Q9I325)
Test: SEC

Substance | stoichiometry N
PopB (native, untagged P. aeruginosa T3S translocator) (from UniProt Q9I324 1-390) (natural protein) | 1
PopD (native, untagged P. aeruginosa T3S translocator) (from UniProt Q9I323 1-295) (natural protein) | 1
